Data taken from patent US20090312251.

B1: LATS2 (human cDNA, GenBank Accession No. NP-055387.2, Flag- or HA-tagged) (protein)
chain: MRPKTFPATTYSGNSRQRLQEIREGLKQPSKSSVQGLPAGPNSDTSLDAKVLGSKDATRQQQQMRATPKFGPYQKALREIRYSLLPFANESGTSAAAEVNRQMLQELVNAGCDQEMAGRALKQTGSRSIEAALEYISKMGYLDPRNEQIVRVIKQTSPGKGLMPTPVTRRPSFEGTGDSFASYHQLSGTPYEGPSFGADGPTALEEMPRPYVDYLFPGVGPHGPGHQHQHPPKGYGASVEAAGAHFPLQGAHYGRPHLLVPGEPLGYGVQRSPSFQSKTPPETGGYASLPTKGQGGPPGAGLAFPPPAAGLYVPHPHHKQAGPAAHQLHVLGSRSQVFASDSPPQSLLTPSRNSLNVDLYELGSTSVQQWPAATLARRDSLQKPGLEAPPRAHVAFRPDCPVPSRTNSFNSHQPRPGPPGKAEPSLPAPNTVTAVTAAHILHPVKSVRVLRPEPQTAVGPSHPAWVPAPAPAPAPAPAPAAEGLDAKEEHALALGGAGAFPLDVEYGGPDRRCPPPPYPKHLLLRSKSEQYDLDSLCAGMEQSLRAGPNEPEGGDKSRKSAKGDKGGKDKKQIQTSPVPVRKNSRDEEKRESRIKSYSPYAFKFFMEQHVENVIKTYQQKVNRRLQLEQEMAKAGLCEAEQEQMRKILYQKESNYNRLKRAKMDKSMFVKIKTLGIGAFGEVCLACKVDTHALYAMKTLRKKDVLNRNQVAHVKAERDILAEADNEWVVKLYYSFQDKDSLYFVMDYIPGGDMMSLLIRMEVFPEHLARFYIAELTLAIESVHKMGFIHRDIKPDNILIDLDGHIKLTDFGLCTGFRWTHNSKYYQKGSHVRQDSMEPSDLWDDVSNCRCGDRLKTLEQRARKQHQRCLAHSLVGTPNYIAPEVLLRKGYTQLCDWWSVGVILFEMLVGQPPFLAPTPTETQLKVINWENTLHIPAQVKLSPEARDLITKLCCSADHRLGRNGADDLKAHPFFSAIDFSSDIRKQPAPYVPTISHPMDTSNFDPVDEESPWNDASEGSTKAWDTLTSPNNKHPEHAFYEFTFRRFFDDNGYPFRCPKPSGAEASQAESSDLESSDLVDQTEGCQPVYV
B2: LATS1 (human cDNA, GenBank Accession No. NP-004681.1, Flag- or HA-tagged) (protein)
chain: MKRSEKPEGYRQMRPKTFPASNYTVSSRQMLQEIRESLRNLSKPSDAAKAEHNMSKMSTEDPRQVRNPPKFGTHHKALQEIRNSLLPFANETNSSRSTSEVNPQMLQDLQAAGFDEDMVIQALQKTNNRSIEAAIEFISKMSYQDPRREQMAAAAARPINASMKPGNVQQSVNRKQSWKGSKESLVPQRHGPPLGESVAYHSESPNSQTDVGRPLSGSGISAFVQAHPSNGQRVNPPPPPQVRSVTPPPPPRGQTPPPRGTTPPPPSWEPNSQTKRYSGNMEYVISRISPVPPGAWQEGYPPPPLNTSPMNPPNQGQRGISSVPVGRQPIIMQSSSKFNFPSGRPGMQNGTGQTDFMIHQNVVPAGTVNRQPPPPYPLTAANGQSPSALQTGGSAAPSSYTNGSIPQSMMVPNRNSHNMELYNISVPGLQTNWPQSSSAPAQSSPSSGHEIPTWQPNIPVRSNSFNNPLGNRASHSANSQPSATTVTAITPAPIQQPVKSMRVLKPELQTALAPTHPSWIPQPIQTVQPSPFPEGTASNVTVMPPVAEAPNYQGPPPPYPKHLLHQNPSVPPYESISKPSKEDQPSLPKEDESEKSYENVDSGDKEKKQITTSPITVRKNKKDEERRESRIQSYSPQAFKFFMEQHVENVLKSHQQRLHRKKQLENEMMRVGLSQDAQDQMRKMLCQKESNYIRLKRAKMDKSMFVKIKTLGIGAFGEVCLARKVDTKALYATKTLRKKDVLLRNQVAHVKAERDILAEADNEWVVRLYYSFQDKDNLYFVMDYIPGGDMMSLLIRMGIFPESLARFYIAELTCAVESVHKMGFIHRDIKPDNILIDRDGHIKLTDFGLCTGFRWTHDSKYYQSGDHPRQDSMDFSNEWGDPSSCRCGDRLKPLERRAARQHQRCLAHSLVGTPNYIAPEVLLRTGYTQLCDWWSVGVILFEMLVGQPPFLAQTPLETQMKVINWQTSLHIPPQAKLSPEASDLIIKLCRGPEDRLGKNGADEIKAHPFFKTIDFSSDLRQQSASYIPKITHPTDTSNFDPVDPDKLWSDDNEEENVNDTLNGWYKNGKHPEHAFYEFTFRRFFDDNGYPYNYPKPIEYEYINSQGSEQQSDEDDQNTGSEIKNRDLVYV

How the values were obtained:
[1] = molecular target: His-YAP-SA (recombinant hexahistidine-tagged YAP serine to alanine mutant, pET-15b)
[2] = molecular target: YAP S127A mutant (human YAP, transfected, Flag- or HA-tagged)

Row | Protein | in-vitro kinase assay, 32P-labeled YAP by autoradiography [1] | phosphorylation of YAP in co-transfected WW45-deficient keratinocytes (Western blot) [2]
1 | B1 | markedly reduced levels of phosphorylation of YAP S127A mutant by LATS1/2 | only the S127A mutant was not phosphorylated by activated LATS2 in cells
2 | B2 | markedly reduced levels of phosphorylation of YAP S127A mutant by LATS1/2 | 
